Measurements as given in article doi:10.1101/749176, “ZapA tetramerization is required for midcell localization and ZapB interaction in Escherichia coli” (bioRxiv, 2019).
Numbering of substitutions follows the chain as printed. Names may count otherwise.

T1: mKO-FtsZ (Escherichia coli, UniProt P0A9A6 1-383)
T1 construct: FtsZ, Escherichia coli; also called Filamenting temperature sensitive Z; source: E. coli TB28 ΔzapA or WT strain, expressed from plasmid, in living cells
T1 sequence (looked up): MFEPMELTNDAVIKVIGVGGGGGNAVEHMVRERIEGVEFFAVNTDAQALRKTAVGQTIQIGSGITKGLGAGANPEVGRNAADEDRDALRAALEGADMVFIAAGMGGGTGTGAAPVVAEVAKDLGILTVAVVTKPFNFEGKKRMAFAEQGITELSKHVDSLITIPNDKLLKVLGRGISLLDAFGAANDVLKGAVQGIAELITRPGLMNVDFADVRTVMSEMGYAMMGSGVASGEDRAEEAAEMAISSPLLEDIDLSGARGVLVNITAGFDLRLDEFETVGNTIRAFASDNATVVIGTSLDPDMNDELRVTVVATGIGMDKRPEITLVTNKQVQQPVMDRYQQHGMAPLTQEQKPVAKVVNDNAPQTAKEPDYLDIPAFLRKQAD

T2: mKO-PBP1a (Escherichia coli, UniProt P02918 1-850)
T2 construct: PBP1a, inner membrane (IM) protein, Escherichia coli; Negative control partner of the FRET assay; source: E. coli TB28 ΔzapA, expressed from plasmid, in living cells
T2 sequence (looked up): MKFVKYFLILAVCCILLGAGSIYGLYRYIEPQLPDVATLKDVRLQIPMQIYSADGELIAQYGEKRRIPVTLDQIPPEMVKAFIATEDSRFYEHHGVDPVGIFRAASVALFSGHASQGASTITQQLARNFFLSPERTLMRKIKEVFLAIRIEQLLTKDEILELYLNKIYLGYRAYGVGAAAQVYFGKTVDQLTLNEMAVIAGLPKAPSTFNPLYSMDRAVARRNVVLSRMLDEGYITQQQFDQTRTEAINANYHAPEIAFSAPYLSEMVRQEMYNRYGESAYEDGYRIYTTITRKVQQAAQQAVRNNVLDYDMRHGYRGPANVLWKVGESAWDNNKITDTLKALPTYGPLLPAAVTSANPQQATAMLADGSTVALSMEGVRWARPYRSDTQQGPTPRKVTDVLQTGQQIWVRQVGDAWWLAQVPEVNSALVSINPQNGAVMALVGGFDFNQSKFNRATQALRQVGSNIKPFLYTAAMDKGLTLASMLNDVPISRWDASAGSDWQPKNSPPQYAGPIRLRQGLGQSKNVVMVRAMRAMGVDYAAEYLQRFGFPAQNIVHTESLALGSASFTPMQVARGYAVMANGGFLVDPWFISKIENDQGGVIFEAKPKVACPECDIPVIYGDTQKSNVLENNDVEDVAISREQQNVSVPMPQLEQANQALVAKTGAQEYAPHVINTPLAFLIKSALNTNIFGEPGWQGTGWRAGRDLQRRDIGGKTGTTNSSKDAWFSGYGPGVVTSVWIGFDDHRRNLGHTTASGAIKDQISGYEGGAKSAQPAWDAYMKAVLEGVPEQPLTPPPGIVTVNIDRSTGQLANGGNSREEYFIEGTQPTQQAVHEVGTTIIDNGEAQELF

B1: mCh-ZapA (wild type ZapA fused to mCh) (natural protein, Escherichia coli, UniProt P0ADS2 1-109, looked up)
chain: MSAQPVDIQIFGRSLRVNCPPDQRDALNQAADDLNQRLQDLKERTRVTNTEQLVFIAALNISYELAQEKAKTRDYAASMEQRIRMLQQTIEQALLEQGRITEKTNQNFE
notes: ZapA (Z associated protein A), Escherichia coli; zapA in plasmid pSAV077; also called mCh-ZapA^WT; ZapA^WT; source: E. coli TB28 ΔzapA or WT strain, expressed from plasmid, in living cells
B2: mCh-ZapA^I83E (dimeric ZapA mutant fused to mCh) (natural protein, Escherichia coli, UniProt P0ADS2 1-109, looked up)
chain: B1 chain with I83E
notes: ZapA (Z associated protein A), Escherichia coli, with I83E; zapA of pSAV077 exchanged for zapA^I83E from pRP071; source: E. coli TB28 ΔzapA or WT strain, expressed from plasmid pNM137, in living cells
B3: mCh-PBP1b (natural protein, Escherichia coli, UniProt P02919 1-844, looked up)
chain: MAGNDREPIGRKGKPTRPVKQKVSRRRYEDDDDYDDYDDYEDEEPMPRKGKGKGKGRKPRGKRGWLWLLLKLAIVFAVLIAIYGVYLDQKIRSRIDGKVWQLPAAVYGRMVNLEPDMTISKNEMVKLLEATQYRQVSKMTRPGEFTVQANSIEMIRRPFDFPDSKEGQVRARLTFDGDHLATIVNMENNRQFGFFRLDPRLITMISSPNGEQRLFVPRSGFPDLLVDTLLATEDRHFYEHDGISLYSIGRAVLANLTAGRTVQGASTLTQQLVKNLFLSSERSYWRKANEAYMALIMDARYSKDRILELYMNEVYLGQSGDNEIRGFPLASLYYFGRPVEELSLDQQALLVGMVKGASIYNPWRNPKLALERRNLVLRLLQQQQIIDQELYDMLSARPLGVQPRGGVISPQPAFMQLVRQELQAKLGDKVKDLSGVKIFTTFDSVAQDAAEKAAVEGIPALKKQRKLSDLETAIVVVDRFSGEVRAMVGGSEPQFAGYNRAMQARRSIGSLAKPATYLTALSQPKIYRLNTWIADAPIALRQPNGQVWSPQNDDRRYSESGRVMLVDALTRSMNVPTVNLGMALGLPAVTETWIKLGVPKDQLHPVPAMLLGALNLTPIEVAQAFQTIASGGNRAPLSALRSVIAEDGKVLYQSFPQAERAVPAQAAYLTLWTMQQVVQRGTGRQLGAKYPNLHLAGKTGTTNNNVDTWFAGIDGSTVTITWVGRDNNQPTKLYGASGAMSIYQRYLANQTPTPLNLVPPEDIADMGVDYDGNFVCSGGMRILPVWTSDPQSLCQQSEMQQQPSGNPFDQSSQPQQQPQQQPAQQEQKDSDGVAGWIKDMFGSN
notes: PBP1b, Escherichia coli; Negative control of the FRET assay; source: E. coli TB28 ΔzapA, expressed from plasmid, in living cells

How the values were obtained:
mKO-FtsZ = target: T1, mKO-FtsZ; assay: FRET or BRET; in vivo FRET in E. coli TB28 ΔzapA cells, mKO donor and mCh acceptor fusions expressed from plasmids; energy transfer efficiency (EfA) from unmixed emission spectra; settings: partners not purified
mKO-PBP1a = target: T2, mKO-PBP1a; assay: as above; settings: partners not purified

| Binder | energy transfer efficiency (EfA) (mKO-FtsZ) [%] | energy transfer efficiency (EfA) (mKO-PBP1a) [%] |
| --- | --- | --- |
| B1 | 4 | < 1.7 |
| B2 | – | < 1.7 |
| B3 | – | < 1.7 |
